System: mouse neural stem cells (NSCs)
Assay: 96-plex scRNA-seq perturbation experiment (96-sample growth factor screen)
Format: cell-based
Protocol: Neural stem cells for 96-sample growth factor screen were cultured according to the following protocol after previously described cell culture plate reached ˜80% confluence: Stock solutions (10×) were prepared in Neural Stem Cell Basal Medium for every factor and at every concentration used: EGF+bFGF at 200 ng/mL, 40 ng/mL, 8 ng/mL, 1.6 ng/mL; BMP4 (Peprotech) at 200 ng/mL, 40 ng/mL, 8 ng/mL, 0 ng/mL; Retinoic Acid (Sigma) at 10 μM, 2 μM, 0 μM; Scriptaid (Selleckchem)/Decitabine (Selleckchem) at 1 μM/5 μM, 0.2 μM/1 μM, 0 μM/0 μM; Heparin at 20 μg/mL+Penicillin-Streptomycin at 10%. 20 μL each of EGF/bFGF, BMP4, Retinoic acid or Scriptaid/Decitabine, and Heparin/Penicillin-Streptomycin were added to each well of a poly-L-ornithine and laminin coated 96-well plate for a total of 80 μL.
NSCs previously plated on 100 mm culture plates until ˜80% confluent were dissociated by incubation in 4 mL of ESGRO Complete Accutase (Millipore) for 2 minutes at 37° C. After incubation, the Accutase and NSCs were transferred to a 15 mL conical tube and centrifuged at room temperature for 2.5 minutes at 200×g. Supernatant was removed and the cell pellet was resuspended in 2 mL Neural Stem Cell Basal Medium. Centrifugation and medium replacement were repeated one more time and cell concentration was counted on the Countess II Automated Cell Counter. The cell suspension was then diluted with additional Neural Stem Cell Basal Medium to a concentration of 18.3 cells/μL. From this stock 120 μL was added to each well of the 96-well plate for a total of ˜2,200 cells/well. Supplemented media for every well in the 96-well plate was replaced every other day during the 5-day incubation.
Before NSC dissociation and fixation, 80 μL of ice-cold methanol was added to each well of twelve 8-well PCR strips on an ice block. After 5 days in culture, all media in the 96-well plate were removed and the cells washed three times with 150 μL of Neural Stem Cell Basal Medium. Any remaining media were removed and replaced with 20 μL of Accutase and incubated at 37° C. for 2 minutes with gentle pipetting to help break cell clumps. […]
Cells for the 96-sample perturbation experiment were prepared as described above. […] Sequencing libraries were prepared as described, with sample tag libraries sequenced on two lanes of Illumina MiSeq using MiSeq v3 150 cycle kits (26×98 bp reads), and cDNA libraries pooled and sequenced on Illumina HiSeq 4000 using two HiSeq 3000/4000 SBS 300 cycle kits (2×150 bp reads).
For the 96-sample perturbation experiment, the ScanPy Python package (version 1.0.4) was used to process the filtered genes×cells matrix produced by cellranger. […] The per-cell read counts were regressed out and the data scaled to unit variance. […]

B1: BMP4: bone morphogenic protein 4 (BMP4), Peprotech (protein, UniProt P12644 293-408, looked up)
Bone morphogenetic protein 4: SPKHHSQRARKKNKNCRRHSLYVDFSDVGWNDWIVAPPGYQAFYCHGDCPFPLADHLNSTNHAIVQTLVNSVNSSIPKACCVPTELSAISMLYLDEYDKVVLKNYQEMVVEGCGCR
Example 2 analysis, FIG. 3E, 5A
  cell proliferation / phenotype across the perturbation array: high proliferation under low BMP4 conditions
Example 2 analysis, FIG. 5B
  effect on cell populations, PCA of relative cluster abundance × sample matrix: graded effect
Example 5 re-analysis (UMAP), FIG. 24, 27
  cell proliferation / phenotype across the perturbation array: high proliferation under low BMP4 conditions
Example 5 re-analysis (UMAP), FIG. 24B
  effect on cell populations, PCA of relative cluster abundance × sample matrix: graded effect

From patent publication US11492610B2, “Sample multiplexing for single-cell RNA sequencing” (California Institute of Technology, priority 2018, dated 2022)
